{"source": "patent US20250171534A1", "about": "(D2M BIOTHERAPEUTICS, published 2025)", "binders": {"B1": {"name": "D2M002-002 (antibody, V domains shown)", "VH": "EVQLQQSGPELVKPGASVKMSCKASGYTFTRYVMHWVKQKPGQGLEWIGYINPNNDGTKYNEKFKGKVTLTSDKSSSTAYMELSSLTSEDSAVYYCARGDLEILPYYDHARNAMDYWGQGTSVTVSS", "VL": "DVQMIQSPASLSASVGETVTITCRASENIYSYLAWYQQKQGKSPQLLVYNAKTLAEGVPSRFSGSGSGTQFSLKINSLQPEDFGSYYCQHFWSTPPTFGGGTKLEIK", "notes": "Hit from immunised mice; also called clone #2; anti-LILRB1/2 clone #2"}}, "key": {"[1]": {"target": "T1, LILRB1-ECD-HIS (SinoBiological Cat #: 16014-H02H) (human, UniProt Q8NHL6 24-461)", "T1 construct": "Bought protein; also called monomeric antigen LILRB1-ECD-HIS; not shown: His tag", "T1 sequence (Q8NHL6 other isoform, or with tags, fused parts or gaps H02H H02H)": "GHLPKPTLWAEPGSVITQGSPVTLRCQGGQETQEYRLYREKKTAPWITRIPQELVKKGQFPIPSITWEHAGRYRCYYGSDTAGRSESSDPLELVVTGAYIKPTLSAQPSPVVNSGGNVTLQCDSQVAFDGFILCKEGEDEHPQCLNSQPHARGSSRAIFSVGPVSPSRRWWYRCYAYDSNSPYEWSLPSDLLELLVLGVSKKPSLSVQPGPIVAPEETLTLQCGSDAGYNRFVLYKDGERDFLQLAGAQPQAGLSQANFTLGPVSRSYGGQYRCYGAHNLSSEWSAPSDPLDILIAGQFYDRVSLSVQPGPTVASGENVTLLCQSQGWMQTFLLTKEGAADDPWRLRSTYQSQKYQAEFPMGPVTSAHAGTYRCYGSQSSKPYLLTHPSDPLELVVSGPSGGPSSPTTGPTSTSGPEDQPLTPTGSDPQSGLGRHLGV", "assay": "BLI (Gator), RB1-ECD-his"}, "[2]": {"target": "T1, LILRB1-ECD-HIS (SinoBiological Cat #: …)", "assay": "SPR (Carterra), LILRB1-ECD-his"}, "[3]": {"target": "T2, LILRB2-ECD-HIS (SinoBiological Cat #: 14132-H02H) (human, UniProt Q8N423 22-460)", "T2 construct": "Bought protein; also called monomeric antigen LILRB2-ECD-HIS; not shown: His tag", "T2 sequence (Q8N423 other isoform, or with tags, fused parts or gaps H02H H02H)": "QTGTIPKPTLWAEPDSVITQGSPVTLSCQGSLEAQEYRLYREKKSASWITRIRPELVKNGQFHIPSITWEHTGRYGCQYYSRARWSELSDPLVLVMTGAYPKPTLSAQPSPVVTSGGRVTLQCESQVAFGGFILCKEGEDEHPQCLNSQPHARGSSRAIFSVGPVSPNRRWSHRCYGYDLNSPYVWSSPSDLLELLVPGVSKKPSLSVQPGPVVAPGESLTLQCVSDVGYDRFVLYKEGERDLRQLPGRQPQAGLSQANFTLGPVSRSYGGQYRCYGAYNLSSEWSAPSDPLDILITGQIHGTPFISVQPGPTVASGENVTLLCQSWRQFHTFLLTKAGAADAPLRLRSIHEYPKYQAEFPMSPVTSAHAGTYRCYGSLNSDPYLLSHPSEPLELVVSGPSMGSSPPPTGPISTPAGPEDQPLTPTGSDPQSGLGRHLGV", "assay": "SPR (Carterra), LILRB2-ECD-his"}, "[4]": {"target": "T3, human LILRB1 expressed on cells (human, UniProt Q8NHL6 24-650)", "T3 construct": "In 293T cells it was expressed from pCMV3-LILRB1-GFP; also called CHO-LILRB1; Jurkat-LILRB1", "T3 sequence (Q8NHL6 other isoform, or with tags, fused parts or gaps limits assumed)": "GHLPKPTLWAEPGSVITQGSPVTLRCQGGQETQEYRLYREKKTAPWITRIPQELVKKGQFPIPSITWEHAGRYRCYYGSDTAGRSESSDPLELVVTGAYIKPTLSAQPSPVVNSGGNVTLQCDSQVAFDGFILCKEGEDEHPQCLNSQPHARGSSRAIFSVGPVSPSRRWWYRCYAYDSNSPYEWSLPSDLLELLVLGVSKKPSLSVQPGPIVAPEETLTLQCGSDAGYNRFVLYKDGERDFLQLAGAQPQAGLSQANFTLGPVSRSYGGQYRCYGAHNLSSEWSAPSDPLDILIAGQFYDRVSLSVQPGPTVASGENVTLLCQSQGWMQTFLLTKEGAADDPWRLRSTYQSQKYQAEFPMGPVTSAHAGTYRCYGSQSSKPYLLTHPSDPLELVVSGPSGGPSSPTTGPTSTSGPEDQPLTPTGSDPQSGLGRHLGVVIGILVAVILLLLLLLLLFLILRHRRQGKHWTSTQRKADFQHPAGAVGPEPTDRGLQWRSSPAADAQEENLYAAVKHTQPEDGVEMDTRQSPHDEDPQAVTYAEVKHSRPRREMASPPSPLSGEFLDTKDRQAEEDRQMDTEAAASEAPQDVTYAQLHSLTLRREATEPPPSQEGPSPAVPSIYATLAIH", "assay": "flow cytometry, Jurkat-LILRB1 cells"}, "[5]": {"target": "T4, human LILRB2 expressed on cells (human, UniProt Q8N423 22-597)", "T4 construct": "In 293T cells it was expressed from pCMV3-LILRB2-GFP; also called CHO-LILRB2; Jurkat-LILRB2", "T4 sequence (Q8N423 other isoform, or with tags, fused parts or gaps limits assumed)": "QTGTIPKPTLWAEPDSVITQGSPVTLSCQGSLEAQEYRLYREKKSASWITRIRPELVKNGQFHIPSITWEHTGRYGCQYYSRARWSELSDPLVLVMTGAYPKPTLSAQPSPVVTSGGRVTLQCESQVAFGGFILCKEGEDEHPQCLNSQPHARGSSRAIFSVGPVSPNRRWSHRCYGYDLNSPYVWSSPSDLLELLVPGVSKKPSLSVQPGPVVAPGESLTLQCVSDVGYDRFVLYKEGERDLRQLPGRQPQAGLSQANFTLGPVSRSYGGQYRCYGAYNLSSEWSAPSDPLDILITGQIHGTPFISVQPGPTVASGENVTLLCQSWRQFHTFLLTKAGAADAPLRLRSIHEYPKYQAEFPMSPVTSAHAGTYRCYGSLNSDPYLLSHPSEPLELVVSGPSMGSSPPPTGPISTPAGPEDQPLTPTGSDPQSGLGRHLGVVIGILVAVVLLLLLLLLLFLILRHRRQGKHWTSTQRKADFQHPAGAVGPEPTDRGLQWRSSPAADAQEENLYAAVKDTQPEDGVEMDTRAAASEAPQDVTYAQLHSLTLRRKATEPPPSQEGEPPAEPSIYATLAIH", "assay": "flow cytometry, Jurkat-LILRB2 cells"}, "[6]": {"target": "T1, LILRB1-ECD-HIS (SinoBiological Cat #: …)", "assay": "SPR (Carterra LSA), antibody captured, antigen injected;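 note: kd obtained from kinetic analysis of antibody binding to the antigen, with association and dissociation phases fitted in the instrument software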"}, "[7]": {"target": "T2, LILRB2-ECD-HIS (SinoBiological Cat #: …)", "assay": "SPR (Carterra LSA), antibody captured, antigen injected"}, "[8]": {"target": "T1, LILRB1-ECD-HIS (SinoBiological Cat #: …)", "assay": "BLI (Gator), trace labelled 5 µg/mL; unit taken from the Average KD line"}, "[9]": {"target": "T2, LILRB2-ECD-HIS (SinoBiological Cat #: …)", "assay": "BLI (Gator), trace labelled 0.5 µg/mL; unit taken from the Average KD line"}, "[10]": {"target": "T1, LILRB1-ECD-HIS (SinoBiological Cat #: …)", "assay": "BLI (Gator Prime), antibody on anti-hIgG Fc probe, monomeric LILRB1-ECD-HIS in solution"}, "[11]": {"target": "T5, LILRA1 expressed on cells (human, UniProt O75019 17-489)", "T5 construct": "whole, on cells; GFP-tagged; also called human LILRA1; CHO-LILRA1", "T5 sequence (O75019 17-489)": "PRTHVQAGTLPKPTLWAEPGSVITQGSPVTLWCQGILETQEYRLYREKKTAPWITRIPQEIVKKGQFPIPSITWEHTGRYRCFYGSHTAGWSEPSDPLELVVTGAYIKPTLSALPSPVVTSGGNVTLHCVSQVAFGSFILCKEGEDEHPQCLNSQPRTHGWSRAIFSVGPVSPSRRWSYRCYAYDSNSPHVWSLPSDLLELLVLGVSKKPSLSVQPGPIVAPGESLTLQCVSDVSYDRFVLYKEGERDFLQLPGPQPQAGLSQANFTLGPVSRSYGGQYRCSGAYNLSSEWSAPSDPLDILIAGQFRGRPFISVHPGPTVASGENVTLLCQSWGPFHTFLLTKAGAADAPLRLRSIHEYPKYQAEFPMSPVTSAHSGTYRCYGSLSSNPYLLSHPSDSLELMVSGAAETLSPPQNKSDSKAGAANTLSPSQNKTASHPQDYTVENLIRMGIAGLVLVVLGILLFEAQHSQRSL", "assay": "flow cytometry on CHO-LILRA1 cells, non-linear fit of the curves of FIG. 26E"}, "[12]": {"target": "T6, LILRA6 expressed on cells (human, UniProt Q6PI73 24-481)", "T6 construct": "whole, on cells; GFP-tagged; also called human LILRA6; CHO-LILRA6", "T6 sequence (Q6PI73 24-481)": "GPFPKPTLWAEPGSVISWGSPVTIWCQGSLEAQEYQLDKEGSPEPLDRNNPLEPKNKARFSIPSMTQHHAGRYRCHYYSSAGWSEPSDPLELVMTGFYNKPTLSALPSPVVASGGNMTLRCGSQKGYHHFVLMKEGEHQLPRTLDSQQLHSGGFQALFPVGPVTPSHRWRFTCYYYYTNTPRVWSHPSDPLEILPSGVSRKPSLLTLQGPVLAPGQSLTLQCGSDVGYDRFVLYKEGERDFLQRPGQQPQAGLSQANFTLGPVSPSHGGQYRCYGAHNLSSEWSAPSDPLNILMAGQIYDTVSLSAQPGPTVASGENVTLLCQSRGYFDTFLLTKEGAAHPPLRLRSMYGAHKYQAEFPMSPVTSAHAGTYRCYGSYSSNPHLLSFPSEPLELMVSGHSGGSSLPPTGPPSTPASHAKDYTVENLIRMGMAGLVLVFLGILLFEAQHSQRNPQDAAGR", "assay": "flow cytometry on CHO-LILRA6 cells, non-linear fit of the curves of FIG. 26F"}, "[13]": {"target": "T7, LILRB3 expressed on cells (human, UniProt O75022 24-631)", "T7 construct": "whole, on cells; Expressed with a GFP tag from the bought plasmid; also called human LILRB3; CHO-LILRB3", "assay": "flow cytometry on CHO-LILRB3 cells, non-linear fit of the curves of FIG. 26C"}, "[14]": {"target": "T3, human LILRB1 expressed on cells", "assay": "flow cytometry, CHO-LILRB1 cells; blocked ligand: APC HLA-G trimer tetramer"}, "[15]": {"target": "T3, human LILRB1 expressed on cells", "assay": "flow cytometry, Jurkat-LILRB1 cells; blocked ligand: APC HLA-G trimer tetramer"}, "[16]": {"target": "T4, human LILRB2 expressed on cells", "assay": "flow cytometry on CHO-LILRB2 cells (CHO-RB2), titrated antibody, labelled anti-human Fc, gMFI"}, "[17]": {"target": "T8, LILRA2 expressed on 293T cells (UniProt Q8N149 24-483, limits assumed)", "T8 construct": "whole, on cells; GFP-tagged, transient", "T8 sequence (Q8N149 24-483 limits assumed)": "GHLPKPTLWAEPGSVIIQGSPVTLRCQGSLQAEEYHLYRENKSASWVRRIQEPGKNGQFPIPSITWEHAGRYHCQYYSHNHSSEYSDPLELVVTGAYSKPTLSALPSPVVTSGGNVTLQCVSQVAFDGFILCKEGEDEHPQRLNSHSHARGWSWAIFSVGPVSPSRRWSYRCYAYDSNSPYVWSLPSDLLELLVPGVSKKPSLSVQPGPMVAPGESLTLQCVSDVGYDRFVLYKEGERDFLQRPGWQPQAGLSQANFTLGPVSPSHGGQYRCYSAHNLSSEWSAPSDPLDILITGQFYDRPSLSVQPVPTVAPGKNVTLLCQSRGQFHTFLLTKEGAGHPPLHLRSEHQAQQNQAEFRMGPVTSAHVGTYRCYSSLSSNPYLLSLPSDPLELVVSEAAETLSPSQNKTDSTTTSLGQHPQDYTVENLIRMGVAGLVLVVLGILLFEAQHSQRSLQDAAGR", "assay": "flow cytometry on 293T cells transiently expressing LILRA2, APC anti-human Fc; gMFI as fold to IgG staining"}, "[18]": {"target": "T9, LILRA3 expressed on 293T cells (UniProt Q8N6C8 24-439, limits assumed)", "T9 construct": "whole, on cells; GFP-tagged, transient", "T9 sequence (Q8N6C8 24-439 limits assumed)": "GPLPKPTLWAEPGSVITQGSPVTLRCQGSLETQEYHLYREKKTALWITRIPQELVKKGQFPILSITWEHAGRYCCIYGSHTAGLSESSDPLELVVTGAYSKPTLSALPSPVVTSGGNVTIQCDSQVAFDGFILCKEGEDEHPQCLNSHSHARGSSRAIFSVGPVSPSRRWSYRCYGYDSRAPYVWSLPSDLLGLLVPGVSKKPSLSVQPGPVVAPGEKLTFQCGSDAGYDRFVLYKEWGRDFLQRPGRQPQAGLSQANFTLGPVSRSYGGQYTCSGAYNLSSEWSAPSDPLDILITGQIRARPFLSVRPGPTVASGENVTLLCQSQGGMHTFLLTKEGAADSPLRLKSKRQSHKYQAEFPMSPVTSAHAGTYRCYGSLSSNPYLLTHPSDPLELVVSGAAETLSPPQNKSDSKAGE", "assay": "flow cytometry on 293T cells transiently expressing LILRA3, APC anti-human Fc; gMFI as fold to IgG staining"}}, "data": [{"binder": "B1", "values": [{"measurement": "Kd", "setting": "[1]", "value": 2.12, "unit": "nM"}, {"measurement": "Kd", "setting": "[2]", "value": 5.67, "unit": "nM"}, {"measurement": "koff", "setting": "[2]", "value": 0.000347, "unit": "s⁻¹"}, {"measurement": "kon", "setting": "[2]", "value": 61300, "unit": "M⁻¹ s⁻¹"}, {"measurement": "Kd", "setting": "[3]", "value": 0.44, "unit": "nM"}, {"measurement": "koff", "setting": "[3]", "value": 0.0002, "unit": "s⁻¹"}, {"measurement": "kon", "setting": "[3]", "value": 456000, "unit": "M⁻¹ s⁻¹"}, {"measurement": "EC50", "setting": "[4]", "value": 0.754, "unit": "mg/L"}, {"measurement": "EC50", "setting": "[5]", "value": 0.258, "unit": "mg/L"}, {"measurement": "Kd", "setting": "[6]", "value": 9.77, "unit": "nM"}, {"measurement": "Kd", "setting": "[7]", "value": 1.57, "unit": "nM"}, {"measurement": "Kd", "setting": "[8]", "value": 3.61, "unit": "nM"}, {"measurement": "Kd", "setting": "[9]", "value": 0.265, "unit": "nM"}, {"measurement": "Kd", "setting": "[10]", "value": 3.4, "unit": "nM"}, {"measurement": "EC50", "setting": "[11]", "value": 0.474, "unit": "mg/L"}, {"measurement": "MaxMFI", "setting": "[11]", "value": 19500}, {"measurement": "EC50", "setting": "[12]", "value": 9.46, "unit": "mg/L"}, {"measurement": "EC50", "setting": "[13]", "value": 12.8, "unit": "mg/L"}, {"measurement": "IC50", "setting": "[14]", "value": 0.208, "unit": "mg/L"}, {"measurement": "IC50", "setting": "[15]", "value": 0.191, "unit": "mg/L"}, {"measurement": "EC50 (read off the curve)", "setting": "[16]", "value": "~0.1", "unit": "mg/L"}, {"measurement": "binding result", "setting": "[17]", "value": "no binding (tested: 5 µg/mL)"}, {"measurement": "binding result", "setting": "[18]", "value": "no binding (tested: 5 µg/mL)"}]}]}
